The record followed here is article PMC9975281, “Enolpyruvate transferase MurAA^A149E, identified during adaptation of Enterococcus faecium to daptomycin, increases stability of MurAA–MurG interaction” (The Journal of Biological Chemistry, 2023).

As a reminder, the Kd is a measure of binding affinity in units of concentration. A word on the Km: it is the substrate concentration at which the rate is half of its maximum. A word on the kcat: it is the number of substrate molecules converted per active site and unit of time at saturation.

In one series the target is T1, MurAA^A149E (Enterococcus faecium, UniProt A0A133CTP6, A149E).
T1 construct: gene murA; full-length
As to the kind of experiment: microscale thermophoresis in the presence of UDP-GlcNAc. Type of series: binding.

Series [1] deals with T2, MurAA (Enterococcus faecium, UniProt A0A133CTP6).
T2 construct: gene murA; full-length
As to the kind of experiment: ([…] Å); MST in the presence of UDP-GlcNAc. It is filed as binding.

Series [2] deals with T2, MurAA. Description: X-ray crystal structure ([…] Å), co-purified ligand, weak/partial density. It is filed as binding.
Series [3] deals with Enterococcus faecium MurG (Enterococcus faecium) (UniProt Q3Y2H8). As to the kind of experiment: MST; 50 nM His-MurG labelled with RED-tris-NTA, serial dilution of MurAA^WT (402 uM to 12.3 nM) or MurAA^A149E (69.9 uM to 2.13 nM); 20 mM Hepes pH 7.5, 150 mM NaCl, 0.05% Tween; Monolith NT.115; triplicate.
Series [4] has as its system C=C(OP(=O)(O)O)C(=O)O. Description: purified protein. Particulars: covalently bound within the active site at Cys119.
The subject of series [5] is C=C(OP(=O)(O)O)C(=O)O. As to the kind of experiment: steady-state kinetics (Km), EnzChek phosphate assay. It is filed as biochemical, Enterococcus faecium.

For the molecule `C[C@@H]1O[C@@H]1P(=O)(O)O` [FOS, fosfomycin], the Kd stood at 0.47 ± 0.06 µM at MurAA^A149E and 1.87 ± 0.67 µM on MurAA [1].
On to `CC(=O)N[C@H]1[C@@H](OP(=O)(O)OP(=O)(O)OC[C@H]2O[C@@H](n3ccc(=O)[nH]c3=O)[C@H](O)[C@@H]2O)O[C@H](CO)[C@@H](O)[C@@H]1O[C@H](C)C(=O)O` [UDP-MurNAc], for which, on MurAA [2], the “X-ray crystal structure (2.65 Å), co-purified ligand, weak/partial density” value is “Cys119-PEP adduct and UDP–MurNAc at the interface of two domains in E. faecium MurAA”.
In the case of “Enterococcus faecium MurAA, wildtype (UDP-N-acetylglucosamine enolpyruvate transferase) (enzyme)”, the Kd in series [3] was determined as 27.7 µM.
For “Enterococcus faecium MurAA^A149E (enzyme)”, the Kd in series [3] worked out at 1.72 µM.
In the case of MurAA (Enterococcus faecium), in the series on C=C(OP(=O)(O)O)C(=O)O [4], the Km was 6.35 ± 0.88 µM and the kcat was determined as 1.81 ± 0.06 s⁻¹.
Consider “MurAA^A149E (Enterococcus faecium; A149E)”, for which, in the series on C=C(OP(=O)(O)O)C(=O)O [5], the Km was 7.26 ± 1.05 µM and the kcat came out at 1.04 ± 0.04 s⁻¹.
